The values that follow come from the nanobody polyreactivity screen of Harvey et al. (2022).

A short description of the series: yeast display, Sf9 membrane polyspecificity reagent, FACS + sequencing; frameworks hold sequencing errors. In a few lines: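 Polyreactivity labels are assigned by the sorting gate from which each nanobody was recovered. The gates were low and high (top ~1%), set on anti-HA fluorescence for expression and streptavidin fluorescence for reagent binding. Before sorting, galactose-induced (36–48 hours) yeast display cells were stained for 1 hour at 4 °C with 10% biotinylated, detergent-solubilized Sf9 membrane reagent.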
In the case of “QVQLVESAGGLVQAGGSLRLSCAASGRIFWLYAMGWYRQAPGKERELVASISQSGANTYYADSVKGRFTISRDNSKNNVYLQMNCLKPEYTSVDYCSSNRYDSYYFWVGYWGQGSQVTVSS”, the “polyreactivity (PSR sort gate)” value is given as “low polyreactivity”. For “QVQLVESAGGLVQAGGSLRLSCAASGRILPSNAMGWYRQAPGKERELVAGITSGGSTDYADSVKGRFTISRDNAKNTVYLQMNSLKPEDTGVFYCAADSRRYGVRFDYWGQGTQVTVSS”, the “polyreactivity (PSR sort gate)” value is “low polyreactivity”.

In the case of “QVQLVESAGGLVQAGGSLRLSCAASGRTFGWYAMGWYRQAPGKERELVAAITSSDDSTYYADSVKGRFTISRDNAKNTVYLQMNSLKPEDTEVYYCNKVKYFARSAYGYWGLGTQVTVSS”, the “polyreactivity (PSR sort gate)” value is reported as “low polyreactivity”. For the sequence “QVQLVESAGGLVQAGGSLRLSCAASGRTFHWYTMGWYRQAPGKEREFVAGINWSGARTYYADSVKGRFTISRDNAKNTVYLQMNSLKPEDTAVYYCAKRLWGIDFDYWGQGTQVTVSS”, the “polyreactivity (PSR sort gate)” value was “high polyreactivity”. The same measure for “QVQLVESAGGLVQAGGSLRLSCAASGRTFWSYAMGWSRQAPGKERELVAAINSGGSTYYADSVKGRFTISRDNAKITVYLQRNSLKPEDTAVYYCDADTWYGFDWGVGTQVTVSS”: “high polyreactivity”; for “QVQLVESAGGLVQAGGSLRLSCAASGRTFYSYAMGWSRQAPGKEREFVAAITKSGGSTYYADSVKGRFTISRDNAKNTVYLQMNSLKPEDTAVYYCAAGLVATFSRPGRASYRYNYWGQGTQVTVSS”: “high polyreactivity”.

On to “QVQLVESAGGLVQAGGSLRLSCAASGRTITFNTMGLYRQAPGKERELVAGIDRGGSTNYADSVKGRFTISRDNAKNTVYLQMNSLKPEDTAVYYCAADPPGYVYGKRYYWGQGTQVTVSS”, for which the “polyreactivity (PSR sort gate)” value was “high polyreactivity”. As to “QVQLVESAGGLVQAGGSLRLSCAASGSIFNVYDMGWYRQAPGKERELVAAITWSGGRTYYADSVKGRFTISRDNAKNTVYLQMNSLKPEDTAVSSCSARRWWVKSWRRFDYWGQGTQVTVSS”, the “polyreactivity (PSR sort gate)” value is “high polyreactivity”. Next, “QVQLVESAGGLVQAGGSLRLSCAASGSIFSDNPMGWYIQAPGKERALVASITNSGSTNYADSVKGRFTISRDNAKNTVYLQMNILKPEDTAVYYCAFSFLYTYDNWGQGTQVTVSS”: “low polyreactivity”; “QVQLVESAGGLVQAGGSLRLSCAASGSILDRYAMGWDRQAPGKERELVAAITYSSGRTYYADSVKGRFTISRDNAKNTVYLQMNSLKPEDTAVYYCAARPFKRSNGGGQYYYWGQGTQLTVSS”: “high polyreactivity”. For “QVQLVESAGGLVQAGGSLRLSCAASGSTFAIKAMGWYRQAPGKERELVAAISSSGSTNYADSVKGRFTISRDNAKNTVYLQMNSLKQEDTAVYYCAADRVWGTPQAYVPSHFDYWGQGTQVTVSS”, the “polyreactivity (PSR sort gate)” value is on record as “low polyreactivity”. The same measure for “QVQLVESAGGLVQAGGSLRLSCAASGSTFGKYAMGWDRHAPGKERELVAAISWSGGSTYYADSVKGRFTISRDNAKNTVYLQMNSLKPEDTAVYYCTVYRYDGDYWGQGTQVTVSS”: “high polyreactivity”. For “QVQLVESAGGLVQAGGSLRLSCAASGSTFQWYAMGWSRQAPGKERELVAAIDSDGGTNYADSVKGRFTISRDNAKNTVYLQMNSLKPEDTAVYYCAVKPFYYGSEFDYWGQGTQVTVSS”, the “polyreactivity (PSR sort gate)” value is given as “low polyreactivity”. Regarding “QVQLVESAGGLVQAGGSLRLSCAASGSTFTGYAMGWYRQAPGKERELVAAITYSGVRTNYADSVKGRFTISRDNANNTVYLQMNSLKPEDTAVYYCNAAVVYVKMDYWGQGTQVTVSS”, the “polyreactivity (PSR sort gate)” value is reported as “low polyreactivity”. As to “QVQLVESAGGLVQAGGSLRLSCAASGSTFTSYAMGWYRQAPGKERELVDAITRNGGTTYYADSVKGRFTISRDNAKNTVYLQMNSLKPEDTAVYYCNAPHYYYITSDRRFDYWGQGTQVTVSS”, the “polyreactivity (PSR sort gate)” value is given as “low polyreactivity”. As for “QVQLVESAGGLVQAGGSLRLSCAASGSTFYTYTMGWYRQAPGKERELVAAISSSGGDTYYADSVKGRFTISRDNAKNTVYLQMNSLKPEDTAVYYCAAAGPYGAVWRNDYWGQGTQVTVSS”, the “polyreactivity (PSR sort gate)” value is given as “low polyreactivity”.
